Here are results for three molecules from US20150104443A1 (CHONG KUN DANG PHARMACEUTICAL, published 2015).

Assay [1] addresses T1, ErbB2 (UniProt P04626 23-652, limits assumed). The assay is described as follows: cell-based or functional assay.
Assay [2] deals with T1, ErbB2. The assay is described as follows: BIAcore 2000 SPR, ErbB2 amine-coupled to the chip, antibody injected. (In general: In SPR one partner is held on a chip, and binding of the other changes the refractive index at the surface.)
Assay [3] deals with T1, ErbB2. Description: BIAcore 2000 SPR, ratio of KD values.

Positions count from the first letter of the chain named.

B1: humanized antibody A091 (antibody, V domains shown)
VH: EVQLVESGGGLVQPGGSLRLSCAASGFNIKDTYIHWVRQARGKGLEWVARIYPTNGYTRYADSVKGRFTISADTSKNTAYLQMNSLRAEDTAVYYCSRWGGWGFYAFALWGQGTLVTVSS
VL: DIQMTQSPSSLSASVGDRVTITCRASQDVNTAVAWYQQKPGKAPKLLIYTTTWPYSGVPSRFSGSRSGTDFSLTISSLQPEDFATYYCQQYYNTPVTFGQGTKVEIK
notes: Expressed as a whole humanized antibody in CHO-s cells
For B1, the “inhibition of NCI-N87 cell proliferation (WST-8, 6 days), IC50” value in the assay with ErbB2 [1] was 10.3 nM. In the assay with ErbB2 [2], this molecule registered a Kd of 1.07 nM, a koff of 0.000688 s⁻¹ and a kon of 644000 M⁻¹ s⁻¹.

B2: humanized antibody A058 (antibody, V domains shown)
VH: B1 VH with R41P
VL: B1 VL with T50S, T51A, T52S, W53F, P54L, S72T, Y91H, N93Q, V96A, T97S
notes: as for B1
In the case of B2, the “inhibition of NCI-N87 cell proliferation (WST-8, 6 days), IC50” value with ErbB2 [1] came to 4.3 nM. In the assay with ErbB2 [2], this molecule had a Kd of 0.533 nM, a koff of 0.000278 s⁻¹ and a kon of 522000 M⁻¹ s⁻¹.

B3: humanized antibody AH16 (antibody, V domains shown)
VH: B1 VH with R41P, G100N, G101A, W102K, A106S, A108V, L109H
VL: not shown
notes: as for B1
As for B3, the “fold increase of affinity against the parent antibody 4D5” value in the assay with ErbB2 [3] is around 2 fold. In the assay with ErbB2 [2], this molecule returned a Kd of 0.297 nM, a koff of 0.00012 s⁻¹ and a kon of 404000 M⁻¹ s⁻¹.

As usually defined, the Kd is the concentration at which binding is half-saturated. For orientation: koff means the rate constant with which the complex falls apart. High values mean a short-lived complex, low ones a long-lived complex. The kon is the rate constant with which the complex forms.
